Results published in patent US20050090448A1 (BAXTER INTERNATIONAL, published 2005).
Bridges are numbered along the chain shown (N, C = ends). Where no end group is shown, it is not given here.

The binders below were run against complement component C5 in pooled human plasma (human, UniProt P01031 19-1676) (assay: cell-based or functional assay).
complement component C5 in pooled human plasma, sequence (P01031 19-1676 limits assumed): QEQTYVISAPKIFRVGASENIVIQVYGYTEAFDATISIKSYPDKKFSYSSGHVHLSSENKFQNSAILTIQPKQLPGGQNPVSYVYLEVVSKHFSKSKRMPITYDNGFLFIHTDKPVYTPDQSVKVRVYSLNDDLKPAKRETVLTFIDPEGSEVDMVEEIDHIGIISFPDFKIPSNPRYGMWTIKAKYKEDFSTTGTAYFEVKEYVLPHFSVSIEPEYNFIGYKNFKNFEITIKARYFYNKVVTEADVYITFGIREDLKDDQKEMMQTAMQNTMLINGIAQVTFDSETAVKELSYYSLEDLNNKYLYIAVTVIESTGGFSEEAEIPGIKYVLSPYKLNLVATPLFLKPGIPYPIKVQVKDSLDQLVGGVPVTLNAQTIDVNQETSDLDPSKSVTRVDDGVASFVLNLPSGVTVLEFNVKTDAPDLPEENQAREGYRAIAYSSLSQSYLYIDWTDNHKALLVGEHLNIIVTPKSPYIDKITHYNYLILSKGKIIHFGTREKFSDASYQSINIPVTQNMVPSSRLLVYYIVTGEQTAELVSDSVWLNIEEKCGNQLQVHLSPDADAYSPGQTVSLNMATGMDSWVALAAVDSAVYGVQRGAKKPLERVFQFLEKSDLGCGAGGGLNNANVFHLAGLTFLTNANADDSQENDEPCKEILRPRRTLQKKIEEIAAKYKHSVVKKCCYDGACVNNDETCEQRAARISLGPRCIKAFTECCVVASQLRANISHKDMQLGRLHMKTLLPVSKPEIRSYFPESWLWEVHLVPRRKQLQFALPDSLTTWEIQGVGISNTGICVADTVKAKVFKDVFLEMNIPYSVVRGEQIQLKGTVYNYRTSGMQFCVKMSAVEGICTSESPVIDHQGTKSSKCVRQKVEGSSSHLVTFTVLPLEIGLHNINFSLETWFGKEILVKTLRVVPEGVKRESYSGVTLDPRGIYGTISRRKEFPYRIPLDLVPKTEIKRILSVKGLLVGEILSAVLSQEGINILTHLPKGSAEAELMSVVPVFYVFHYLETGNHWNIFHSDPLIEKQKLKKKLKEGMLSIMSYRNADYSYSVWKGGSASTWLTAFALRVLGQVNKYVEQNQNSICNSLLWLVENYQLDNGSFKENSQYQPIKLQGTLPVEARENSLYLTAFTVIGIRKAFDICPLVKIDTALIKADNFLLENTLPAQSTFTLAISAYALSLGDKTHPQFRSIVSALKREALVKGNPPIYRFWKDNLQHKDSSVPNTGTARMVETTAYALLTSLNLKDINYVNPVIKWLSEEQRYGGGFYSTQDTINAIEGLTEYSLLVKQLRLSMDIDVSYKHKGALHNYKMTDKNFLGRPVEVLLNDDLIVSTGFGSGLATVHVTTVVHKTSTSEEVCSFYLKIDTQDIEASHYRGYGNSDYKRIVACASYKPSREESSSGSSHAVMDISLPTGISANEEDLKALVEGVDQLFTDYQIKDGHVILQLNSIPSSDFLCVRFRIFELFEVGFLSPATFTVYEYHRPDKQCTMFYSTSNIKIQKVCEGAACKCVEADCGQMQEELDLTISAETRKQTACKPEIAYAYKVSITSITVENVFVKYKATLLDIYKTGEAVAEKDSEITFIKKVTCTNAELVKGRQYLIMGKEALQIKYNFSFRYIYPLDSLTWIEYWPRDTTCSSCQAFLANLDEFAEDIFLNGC

First: SFNDLLWRWEWP [Peptide 7 (SEQ ID NO 7)]
Second: DSTWTNFRWEFY [Peptide 8 (SEQ ID NO 8)]
The “IC50 of inhibition of classical pathway hemolysis (antibody sensitized sheep erythrocytes, human plasma)” value of the first is 8.4-fold higher: 48.9 µM for the first, 5.8 µM for the second.

Compared with TQDNRWEFPLRV [Peptide 13 (SEQ ID NO 13)], SDMCAAPWLCPV (disulfide 4-10 (inferred)) [Peptide 6 (SEQ ID NO 6)] is 9.7-fold lower in “IC50 of inhibition of classical pathway hemolysis (antibody sensitized sheep erythrocytes, human plasma)” value: 29.2 µM for the first, 3 µM for the second.
